# Reference: US7658917 (PRAECIS PHARMACEUTICALS, dated 2010)
# Ends that are not written are not given here. * marks the point of attachment. Cholyl = C[C@H](CCC(=O)*)[C@H]1CC[C@H]2[C@@H]3[C@H](O)C[C@@H]4C[C@H](O)CC[C@]4(C)[C@H]3C[C@H](O)[C@]12C
# B1: cholyl-Aβ6-10-amide (peptide)
# peptide: Cholyl-HDSGY-NH2
# SMILES: C[C@H](CCC(=O)N[C@@H](Cc1c[nH]cn1)C(=O)N[C@@H](CC(=O)O)C(=O)N[C@@H](CO)C(=O)NCC(=O)N[C@@H](Cc1ccc(O)cc1)C(N)=O)[C@H]1CC[C@H]2[C@@H]3[C@H](O)C[C@@H]4C[C@H](O)CC[C@]4(C)[C@H]3C[C@H](O)[C@]12C
# B2: cholyl-Aβ14-20 (peptide)
# peptide: Cholyl-HQKLVFF-OH
# SMILES: CC(C)C[C@H](NC(=O)[C@H](CCCCN)NC(=O)[C@H](CCC(N)=O)NC(=O)[C@H](Cc1c[nH]cn1)NC(=O)CC[C@@H](C)[C@H]1CC[C@H]2[C@@H]3[C@H](O)C[C@@H]4C[C@H](O)CC[C@]4(C)[C@H]3C[C@H](O)[C@]12C)C(=O)N[C@H](C(=O)N[C@@H](Cc1ccccc1)C(=O)N[C@@H](Cc1ccccc1)C(=O)O)C(C)C
# B3: cholyl-Aβ15-20 (peptide)
# peptide: Cholyl-QKLVFF-OH
# SMILES: CC(C)C[C@H](NC(=O)[C@H](CCCCN)NC(=O)[C@H](CCC(N)=O)NC(=O)CC[C@@H](C)[C@H]1CC[C@H]2[C@@H]3[C@H](O)C[C@@H]4C[C@H](O)CC[C@]4(C)[C@H]3C[C@H](O)[C@]12C)C(=O)N[C@H](C(=O)N[C@@H](Cc1ccccc1)C(=O)N[C@@H](Cc1ccccc1)C(=O)O)C(C)C
# B4: cholyl-Aβ6-17-amide (peptide)
# peptide: Cholyl-HDSGYEVHHQKL-NH2
# SMILES: CC(C)C[C@H](NC(=O)[C@H](CCCCN)NC(=O)[C@H](CCC(N)=O)NC(=O)[C@H](Cc1c[nH]cn1)NC(=O)[C@H](Cc1c[nH]cn1)NC(=O)[C@@H](NC(=O)[C@H](CCC(=O)O)NC(=O)[C@H](Cc1ccc(O)cc1)NC(=O)CNC(=O)[C@H](CO)NC(=O)[C@H](CC(=O)O)NC(=O)[C@H](Cc1c[nH]cn1)NC(=O)CC[C@@H](C)[C@H]1CC[C@H]2[C@@H]3[C@H](O)C[C@@H]4C[C@H](O)CC[C@]4(C)[C@H]3C[C@H](O)[C@]12C)C(C)C)C(N)=O
# B5: cholyl-Aβ6-14-amide (peptide)
# peptide: Cholyl-HDSGYEVHH-NH2
# SMILES: CC(C)[C@H](NC(=O)[C@H](CCC(=O)O)NC(=O)[C@H](Cc1ccc(O)cc1)NC(=O)CNC(=O)[C@H](CO)NC(=O)[C@H](CC(=O)O)NC(=O)[C@H](Cc1c[nH]cn1)NC(=O)CC[C@@H](C)[C@H]1CC[C@H]2[C@@H]3[C@H](O)C[C@@H]4C[C@H](O)CC[C@]4(C)[C@H]3C[C@H](O)[C@]12C)C(=O)N[C@@H](Cc1c[nH]cn1)C(=O)N[C@@H](Cc1c[nH]cn1)C(N)=O
# B6: cholyl-Aβ6-20-amide (peptide)
# peptide: Cholyl-HDSGYEVHHQKLVFF-NH2
# SMILES: CC(C)C[C@H](NC(=O)[C@H](CCCCN)NC(=O)[C@H](CCC(N)=O)NC(=O)[C@H](Cc1c[nH]cn1)NC(=O)[C@H](Cc1c[nH]cn1)NC(=O)[C@@H](NC(=O)[C@H](CCC(=O)O)NC(=O)[C@H](Cc1ccc(O)cc1)NC(=O)CNC(=O)[C@H](CO)NC(=O)[C@H](CC(=O)O)NC(=O)[C@H](Cc1c[nH]cn1)NC(=O)CC[C@@H](C)[C@H]1CC[C@H]2[C@@H]3[C@H](O)C[C@@H]4C[C@H](O)CC[C@]4(C)[C@H]3C[C@H](O)[C@]12C)C(C)C)C(=O)N[C@H](C(=O)N[C@@H](Cc1ccccc1)C(=O)N[C@@H](Cc1ccccc1)C(N)=O)C(C)C
# B7: cholyl-Aβ6-19-amide (PPI-321 as printed in Table III) (peptide)
# peptide: Cholyl-HDSGYEVHHQKLVF-NH2
# SMILES: CC(C)C[C@H](NC(=O)[C@H](CCCCN)NC(=O)[C@H](CCC(N)=O)NC(=O)[C@H](Cc1c[nH]cn1)NC(=O)[C@H](Cc1c[nH]cn1)NC(=O)[C@@H](NC(=O)[C@H](CCC(=O)O)NC(=O)[C@H](Cc1ccc(O)cc1)NC(=O)CNC(=O)[C@H](CO)NC(=O)[C@H](CC(=O)O)NC(=O)[C@H](Cc1c[nH]cn1)NC(=O)CC[C@@H](C)[C@H]1CC[C@H]2[C@@H]3[C@H](O)C[C@@H]4C[C@H](O)CC[C@]4(C)[C@H]3C[C@H](O)[C@]12C)C(C)C)C(=O)N[C@H](C(=O)N[C@@H](Cc1ccccc1)C(N)=O)C(C)C
# B8: Cholyl-penta-alanine (peptide)
# peptide: Cholyl-AAAAA-OH
# SMILES: C[C@H](NC(=O)[C@H](C)NC(=O)[C@H](C)NC(=O)[C@H](C)NC(=O)[C@H](C)NC(=O)CC[C@@H](C)[C@H]1CC[C@H]2[C@@H]3[C@H](O)C[C@@H]4C[C@H](O)CC[C@]4(C)[C@H]3C[C@H](O)[C@]12C)C(=O)O
# B9: cholyl-Aβ16-20 (Phe19->Ala) (peptide)
# peptide: Cholyl-KLVAF-OH
# SMILES: CC(C)C[C@H](NC(=O)[C@H](CCCCN)NC(=O)CC[C@@H](C)[C@H]1CC[C@H]2[C@@H]3[C@H](O)C[C@@H]4C[C@H](O)CC[C@]4(C)[C@H]3C[C@H](O)[C@]12C)C(=O)N[C@H](C(=O)N[C@@H](C)C(=O)N[C@@H](Cc1ccccc1)C(=O)O)C(C)C
# Molecular target: natural β-amyloid peptide β-AP1-40 (human)
# Assay: cell-based or functional assay
# Target sequence in this assay (peptide, as listed by the source): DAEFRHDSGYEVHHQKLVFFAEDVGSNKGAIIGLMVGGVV
Binder,% Inhibition of Plateau; nucleation assay; 100 mole % [%],Fold Increase in Lag Time; nucleation assay; 100 mole % [fold]
Cholyl-HDSGYEVHHQKLVFF [cholyl-Aβ6-20],100,> 4.5

# Molecular target: natural β-amyloid peptide β-AP1-40 (human)
# Assay: cell-based or functional assay
# Remark: another data set of the same source
Binder,% Inhibition of Plateau; nucleation assay; 33 mole % [%],Fold Increase in Lag Time; nucleation assay; 33 mole % [fold],Fold Increase in Lag Time; nucleation assay; 38 mole % [fold],% Inhibition of Plateau; nucleation assay; 100 mole % [%],Fold Increase in Lag Time; nucleation assay; 10 mole % [fold],Fold Increase in Lag Time; nucleation assay; 100 mole % [fold]
B1,13,1.1,,,,
B2,49,2,,,,
B3,50,2.3,,,,
Cholyl-KLVFF-OH [cholyl-Aβ16-20],,,3.4,,,
B4,~0,1.8,,,,
B5,29,1,,,,
B6,~0,1.8,,,,
Cholyl-HDSGYEVHHQKLVFF [cholyl-Aβ6-20],,,,100,2,> 4.5
B7,~0,1.4,,,,
Cholyl-HHQKLVFF [cholyl-Aβ13-20],~0,2.6,,,,
Cholyl-DSGYEVHHQKLVFF [cholyl-Aβ7-20],~0,2,,100,,> 4.5

# Molecular target: natural β-amyloid peptide β-AP1-40 (human)
# Assay: cell-based or functional assay
# Remark: another data set of the same source
Binder,% Inhibition of Plateau; nucleation assay; 10 mole % [%],% Inhibition of Plateau; nucleation assay; 100 mole % [%],Fold Increase in Lag Time; nucleation assay; 10 mole % [fold],Fold Increase in Lag Time; nucleation assay; 33 mole % [fold],Fold Increase in Lag Time; nucleation assay; 100 mole % [fold]
B3,~0,100,2.1,2.6,> 5
Cholyl-KLVFF-OH [cholyl-Aβ16-20],40,100,2.4,,> 5
B8,,~0,,,~1
Cholyl-KLVFF-NH2 [cholyl-Aβ16-20-amide],~0,,2.7,5.6,
Cholyl-HDSGYEVHHQKLVFF [cholyl-Aβ6-20],43,,2,,
Cholyl-HHQKLVFF [cholyl-Aβ13-20],57,,2.2,,
B9,,73,,,2.6
H-KLVFF-OH [unmodified Aβ16-20],,~0,,,~1

# Molecular target: natural β-amyloid peptide β-AP1-40 (human)
# Assay: cell-based or functional assay
# Remark: another data set of the same source
# Target sequence in this assay (peptide, as listed by the source): as above
Binder,% Inucl'n; nucleation assay; 100 mole % [%],ΔLag; nucleation assay; 100 mole % [ratio],% Inucl'n; nucleation assay; 33 mole % [%],ΔLag; nucleation assay; 33 mole % [ratio],% Iext'n; seeded extension assay; 25 mole % [%]
B1,-18,1.1,,,
B2,,,70,2,
B3,100,> 5,,,56
Cholyl-KLVFF-OH [cholyl-Aβ16-20],72,1.8,,,11
B8,-7,0.8,,,0
Cholyl-KLVFF-NH2 [cholyl-Aβ16-20-amide],70,5.4,,,52
B9,73,2.6,,,31
H-KLVFF-OH [unmodified Aβ16-20],0,1.1,,,8

# Molecular target: natural β-amyloid peptide β-AP1-40 (human)
# Assay: cell-based or functional assay
# Remark: another data set of the same source
Binder,% Inhibition of Plateau; nucleation assay; 100 mole % [%],Fold Increase in Lag Time; nucleation assay; 100 mole % [fold]
KLVFFAEDVGSNKGA [unmodified Aβ16-30],100,> 4.5
HDSGYEVHHQKLVFF [unmodified Aβ6-20],76,1.66
EVHHQKLVFFAEDVG [unmodified Aβ11-25],47,~1
